Assay results from publication PMC5998080, “Structural and functional analysis of mRNA export regulation by the nuclear pore complex” (Nature Communications, 2018).

T1: Nup155 C-terminal domain (Nup155^CTD, residues 870–1391) (human, UniProt O75694 870-1391)
T1 construct: human Nup155, C-terminal domain, residues 870-1391; also called His6-Nup155^CTD; source: E. coli BL21-CodonPlus(DE3)-RIL, purified (Ni-NTA, HiTrap Q, Superdex 200); not shown: His6, N-terminal, cleaved
T1 sequence (looked up): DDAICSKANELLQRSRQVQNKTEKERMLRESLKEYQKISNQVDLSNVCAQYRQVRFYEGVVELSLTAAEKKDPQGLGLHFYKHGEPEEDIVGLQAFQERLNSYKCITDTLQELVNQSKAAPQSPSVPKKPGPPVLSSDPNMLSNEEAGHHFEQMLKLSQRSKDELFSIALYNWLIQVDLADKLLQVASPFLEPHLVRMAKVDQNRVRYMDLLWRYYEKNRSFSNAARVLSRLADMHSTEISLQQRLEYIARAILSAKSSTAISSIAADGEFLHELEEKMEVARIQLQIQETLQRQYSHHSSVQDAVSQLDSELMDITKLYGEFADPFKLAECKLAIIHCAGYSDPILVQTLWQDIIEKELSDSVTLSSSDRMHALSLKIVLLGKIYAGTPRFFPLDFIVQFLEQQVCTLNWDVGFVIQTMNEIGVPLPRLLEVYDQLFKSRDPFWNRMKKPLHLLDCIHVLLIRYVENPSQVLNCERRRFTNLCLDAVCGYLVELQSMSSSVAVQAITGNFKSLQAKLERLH

T2: GST-Nup155^CTD (human, UniProt O75694 870-1391)
T2 construct: human Nup155, C-terminal domain, residues 870-1391; Limits are those printed for Nup155^CTD; source: E. coli BL21-CodonPlus(DE3)-RIL, purified (Glutathione Sepharose, HiTrap Q, Superdex 200); not shown: GST, N-terminal, kept
T2 sequence (looked up): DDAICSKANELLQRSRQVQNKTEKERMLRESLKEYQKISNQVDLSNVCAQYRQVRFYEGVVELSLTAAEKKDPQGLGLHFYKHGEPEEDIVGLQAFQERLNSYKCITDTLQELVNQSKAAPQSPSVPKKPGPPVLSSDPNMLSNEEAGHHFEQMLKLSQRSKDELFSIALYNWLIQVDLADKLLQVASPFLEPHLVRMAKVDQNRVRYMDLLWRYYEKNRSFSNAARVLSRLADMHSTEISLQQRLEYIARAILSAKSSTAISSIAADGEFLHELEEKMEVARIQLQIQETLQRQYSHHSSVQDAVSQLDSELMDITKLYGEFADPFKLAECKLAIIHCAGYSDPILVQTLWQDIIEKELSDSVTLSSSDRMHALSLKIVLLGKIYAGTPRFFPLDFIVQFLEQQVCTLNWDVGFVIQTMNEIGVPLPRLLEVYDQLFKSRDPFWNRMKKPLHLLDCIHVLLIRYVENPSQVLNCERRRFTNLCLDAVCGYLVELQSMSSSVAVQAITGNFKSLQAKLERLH

T3: DDX19 (wild type) (Homo sapiens, UniProt Q9UMR2 1-479)
T3 sequence: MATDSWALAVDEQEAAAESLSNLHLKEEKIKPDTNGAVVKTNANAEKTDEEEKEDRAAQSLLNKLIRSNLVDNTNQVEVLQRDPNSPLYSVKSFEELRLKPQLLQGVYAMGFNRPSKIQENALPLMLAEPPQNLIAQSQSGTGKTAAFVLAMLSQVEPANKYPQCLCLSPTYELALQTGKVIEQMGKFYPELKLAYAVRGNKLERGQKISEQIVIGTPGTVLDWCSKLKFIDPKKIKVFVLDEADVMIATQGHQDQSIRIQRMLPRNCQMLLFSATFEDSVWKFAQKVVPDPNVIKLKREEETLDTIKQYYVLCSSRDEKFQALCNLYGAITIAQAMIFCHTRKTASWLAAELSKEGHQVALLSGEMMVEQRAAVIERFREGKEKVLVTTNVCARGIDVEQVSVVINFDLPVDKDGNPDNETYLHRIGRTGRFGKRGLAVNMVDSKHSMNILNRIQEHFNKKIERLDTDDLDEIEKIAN


Assays:
[1] = target: T1, Nup155 C-terminal domain (Nup155^CTD, …); assay: SEC; Superdex 200 10/300 GL; 20 mM TRIS (pH 8.0), 100 mM NaCl, 5 mM DTT; proteins mixed and incubated 30 min on ice, twofold molar excess of the smaller component; fractions on Coomassie-stained SDS-PAGE; details: both partners purified
GST-Nup155^CTD = target: T2, GST-Nup155^CTD; assay: pull-down; GST-Nup155^CTD (20 μM) preincubated with a twofold molar ratio of Nup98^ΔFG or SUMO-Gle1^N, then with 0-8-fold molar ratios of the other protein; Glutathione Sepharose beads; 20 mM TRIS (pH 8.0), 100 mM NaCl, 5 mM DTT; details: both partners purified
DDX19 (wild type) = target: T3, DDX19 (wild type); assay: EMSA; + 1 uM Gle1CTD(382-698)•Nup42GBM(379-423): binding enhanced; 1 mM AMP-PNP, 2 mM MgCl2; 20 mM TRIS pH 8.0, 100 mM NaCl, 2 mM MgCl2, 1 mM DTT, 10% glycerol, 1 mM AMP-PNP; 25 ng RNA in 10 ul; 20 min on ice; 1.4% native agarose gel, 0.25x TBE, room temperature; details: protein: recombinant; tags: His6 removed by PreScission protease; label: none (SYBR gold stain); single strand

binding result [1]	binding result (GST-Nup155^CTD)	Binder	binding result (DDX19 (wild type))
binds	binds	PSEGRCWETLKALRSSDKGRLCYYRDWLLRRE (domain or fragment, UniProt Q53GS7 2-33, looked up, human Gle1 (splice variant Gle1B), N-terminal residues 2-33; No cleavage of the His6-SUMO tag is described for this construct; also called His6-SUMO-hsGle1^N; source: E. coli BL21-CodonPlus(DE3)-RIL, purified (Ni-NTA, HiTrap Q, Superdex 200); not shown: SUMO, N-terminal, kept) [SUMO-Gle1^N (SUMO fusion of human Gle1 residues 2–33)]	–
–	–	53-nt ssRNA probe (ssRNA) RNA: GUUUUUUUUUUUUUUUUUUUUCUCGAUCCGUAGUGAUCUACUGAGCAUCUCCC	binds
binds	binds	Nup98 lacking the FG repeat region (Nup98^∆FG, residues 498–880) (domain or fragment, human, UniProt P52948 498-880, looked up, human Nup98, construct lacking the FG repeat region, residues 498-880; also called Nup98^ΔFG; His6-SUMO-Nup98^∆FG; source: E. coli BL21-CodonPlus(DE3)-RIL, purified (Ni-NTA, HiTrap Q, Superdex 200); not shown: His6, N-terminal, cleaved; SUMO, N-terminal, cleaved) QAVLQQHINSLTYSPFGDSPLFRNPMSDPKKKEERLKPTNPAAQKALTTPTHYKLTPRPATRVRPKALQTTGTAKSHLFDGLDDDEPSLANGAFMPKKSIKKLVLKNLNNSNLFSPVNRDSENLASPSEYPENGERFSFLSKPVDENHQQDGDEDSLVSHFYTNPIAKPIPQTPESAGNKHSNSNSVDDTIVALNMRAALRNGLEGSSEETSFHDESLQDDREEIENNSYHMHPAGIILTKVGYYTIPSMDDLAKITNEKGECIVSDFTIGRKGYGSIYFEGDVNLTNLNLDDIVHIRRKEVVVYLDDNQKPPVGEGLNRKAEVTLDGVWPTDKTSRCLIKSPDRLADINYEGRLEAVSRKQGAQFKEYRPETGSWVFKVSHF	–
